According to the supplement of paper PMC9170038:

Tested on: MS2 coat protein
Experiment: apparent KD of MS2 coat protein; designed switch direction (-1 OFF switch, 1 ON switch): 1; higher = weaker reporter binding
Summary of the method: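 Stalled E. coli RNA polymerase transcribed designed RNA switches on Illumina chips, which were then titrated with SNAP-549-labelled MS2 coat protein, doubling from 0.7 or 1.5 nM to 3 µM. Steps lasted from 0.8–1.5 h at the lowest concentration to 10–20 min at the highest. The apparent KD is each design's median over clusters of curve-fitted normalised fluorescence.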

[1] = input ligand: microRNA oligo, concentration not stated
[2] = Eterna round: R95, input ligand: FMN 200 uM
[3] = Eterna round: R95, input ligand: microRNA oligo, concentration not stated
[4] = Eterna round: R95, input ligand: none

Row | Sequence | apparent KD of MS2 coat protein (input ligand: FMN 200 uM) | apparent KD of MS2 coat protein [1] | apparent KD of MS2 coat protein (input ligand: none) | apparent KD of MS2 coat protein [2] | apparent KD of MS2 coat protein [3] | apparent KD of MS2 coat protein [4]
1 | AAACGGGCUACAGGAUAUGCUCGAUAAACUUCAGUAGAAGGGUGGCCUUAUCAACGAACAUGAGGAUCACCCAUGUUCUACAAC [Dianrisole] (Eterna round: R96, puzzle: Same State NG 1) | 77.2 nM | 28.3 nM | 136 nM |  |  | 
2 | AUAAGUUUGAUGCUCGUCCCUCCGUACAGACAUGAGGAUCACCCAUGUAGUCGGGAAGUAGCCCGGCCAGUAUGGCC [Biraza] (puzzle: Sensor for hsa-mir-208a) |  |  |  | 15.9 nM | 12.6 nM | 15 nM
3 | GCUAGAAUUAAAGCCAACAUGAGGAUCACCCAUGUAUGUUGGUAGGAUAUCGUUUGCAAAGCAAACGAGAAGGGCUAAACUAGC [Mat - Same State NG 3 - JL Mod - D16] (Eterna round: R96, puzzle: Same State NG 3) | 97.9 nM | 80.2 nM | 93.8 nM |  |  | 
4 | GCCAACAUGAGGAUCACCCAUGUCCGGAAGUGAAUUCAAAGUGAGGAUAUGGAGAGACCGAAAAUCCAGAAGGCACGCACAUGC [Eternabot solution 10] (Eterna round: R96, puzzle: Same State NG 3) | 1500 nM | 475 nM | 1260 nM |  |  | 
5 | GGAGCCGGCACUGAGGAUAUUCAUUUUAAAACAUGAGGAUCACCCAUGUAGGCCAGAAGGCCUUGGGAGAAGGCAGGUCGGCCCG [Bibimoar - 6] (puzzle: Same State 2) |  |  |  | 18.4 nM | 190 nM | 271 nM
6 | GUAGCAUACCGAGGAUAUUCAUAUUAUACAUGAGGAUCACCCAUGUAAGGCCGAUUACGGCCUUGGGAGAAGGCGGAAUGCUAC [Xeonanis - 20 Mod21] (Eterna round: R96, puzzle: Same State NG 2) | 18.9 nM | 68.2 nM | 105 nM |  |  | 
7 | GUUACAUGAGGAUCACCCAUGUAUGUGUGGGAGUAAGUGUCUUAGGAUAUCUAGUAUUUGAUUUAAGAGAAGGAAGAUUGUUGU [JMF's solution 60] (Eterna round: R96, puzzle: Same State NG 3) | 121 nM | 75.4 nM | 110 nM |  |  | 
8 | AACAUGAGGACAUGAACAUGAGGAUCACCCAUGUAUGUUUAUAAGGAUAUAUGAGGAGGAGGAGAAUAGAAGGUAUAGGGAGGG [This also seems to work] (Eterna round: R96, puzzle: Same State NG 3) | 45 nM | 35.5 nM | 43.2 nM |  |  | 
9 | UUUAGUUGCGGGCAGGAUAUGUAUUAAAGUACAUGAGGAUCACCCAUGUGCGGGUAUAACACCCGACAGAAGGGCCAAUCGCGAC [Laonerce - 1] (puzzle: Same State 2) |  |  |  | 17.7 nM | 64.3 nM | 115 nM
10 | UUAUUAAUUACAUGAGGAUCACCCAUGUUUUUAUGUCAGAGACAGGAUAUAGAAGUCUCGUUUUACUAGAAGGGUCAUUAUAAG [JR_SSNG3_Sub015] (Eterna round: R96, puzzle: Same State NG 3) | 18.6 nM | 16.4 nM | 19.2 nM |  |  | 
11 | AACCCAAUGGAAGGAUAUGGCACCUUAUUGGUGCCAGAAGGUCCUAACAUGAGGAUCACCCAUGUGGGCCGGUCGAAAGACCGG [Fiskers NG1ss - 6] (Eterna round: R96, puzzle: Same State NG 1) | 106 nM | 306 nM | 656 nM |  |  | 
12 | UGUUUGUUGUGAGGAUAUACAUACACCUUACAUGAGGAUCACCCAUGUUGUUACUUUGAUAGUUAGUAGAAGGCACUUGGUUAU [JR_SSNG2_Sub047] (Eterna round: R96, puzzle: Same State NG 2) | 94.9 nM | 91.6 nM | 140 nM |  |  | 
13 | GGACGUCGAUAAUAUAACUUCACAUGAGGAUCACCCAUGUCACAGGAUAUGGAUCCUAAUUGGAUCCAGAAGGGUGCGACGUCC [Fiskers NG3ss - 36] (Eterna round: R96, puzzle: Same State NG 3) | 20.7 nM | 61.8 nM | 88.8 nM |  |  | 
14 | GUUACAUGAGGAUCACCCAUGUAUGUGUGGGAGUAAGUGUCUUAGGAUAUCUAGUAUUUAAUUCAAGAGAAGGAAGAUUGUUGU [JMF's solution 68] (Eterna round: R96, puzzle: Same State NG 3) | 118 nM | 132 nM | 122 nM |  |  | 
15 | AAAGGAUGAUUAUACAUGAGGAUCACCCAUGUUUGUAAUACUAAGGAUAUGUGACUUAAUUGUGAACAGAAGGUAGGUUCAUGA [AK SSNG3-V2-1] (Eterna round: R96, puzzle: Same State NG 3) | 56.8 nM | 43.6 nM | 62.2 nM |  |  | 
16 | GAAUAGUUGAGAGGAUAUCUAUUAUUGUAGGAUAGAGAAGGUUUUAACAUGAGGAUCACCCAUGUAGGACUAUAUAUGUGAAUA [Parity 99 - Jieux - Same State NG 1] (Eterna round: R96, puzzle: Same State NG 1) | 14.2 nM | 12.5 nM | 15.3 nM |  |  | 
17 | GAGUGGCAGUUAGGAUAUAUAGUGAUAAUCACAAUAGAAGGAACAGACAUGAGGAUCACCCAUGUAGGACUAAUCCAGAGAGAG [Parity 37 - Jieux - Same State NG 1] (Eterna round: R96, puzzle: Same State NG 1) | 19.2 nM | 16.4 nM | 23.4 nM |  |  | 
18 | GGAGGACAUGAGGAUCACCCAUGUGGAUGGGCGCUAGGAUAUGCGUGCGGGAAGAGUGGAGCAGAAGGAGUGGGUU [JR_SS1_Sub045] (Eterna round: R96, puzzle: Same State 1) | 66.8 nM | 41.9 nM | 55.6 nM |  |  | 
19 | GACCGCGAGGAAGGAUAUGGAGCCUUAAAGGCUCCAGAAGGUCCAUAAAGGACAUGAGGAUCACCCAUGUGGUGAGAAGCGGUC [Mat - Same State NG 1 - JL mod - D75] (Eterna round: R96, puzzle: Same State NG 1) |  | 711 nM |  |  |  | 
20 | AACCGCGCAGAUGCGCGACAUGAGGAUCACCCAUGUGGCACACAGGAUAUCCUGAACAGCUAUUAGGAGAAGGGUGAAGGCCUC [Oredceti] (Eterna round: R96, puzzle: Same State NG 3) | 339 nM | 45.1 nM | 127 nM |  |  | 
21 | AGUCCAGCCUGAGCUGGACAAAAGCAUGUACAUGAGGAUCACCCAUGUCAUGUACAAGCUUUUUGCUCGUCAAAAUA [Mat - hsa-mir-208a - Mod of JL - D29] (puzzle: Sensor for hsa-mir-208a) |  |  |  | 396 nM | 16.5 nM | 480 nM
22 | GGAGCCGGCACCGAGGAUAUUCGUAUUAAAACAUGAGGAUCACCCAUGUAGGCCAGAAGGCCUUGGGAGAAGGCGGAUCGGCUCG [Xeonanis - 2] (puzzle: Same State 2) |  |  |  | 12.4 nM | 65.2 nM | 106 nM
23 | ACAUGAGAUGGAGGAUAUUUUGUACCUACAUGUGACAUGAGGAUCACCCAUGUGGUAAGUAUGAGAAAGAAGGCCAAGAUAUGU [Equivalence 17 - Jieux - Same State NG 2] (Eterna round: R96, puzzle: Same State NG 2) | 17.6 nM | 18.4 nM | 28.5 nM |  |  | 
24 | CUGCUCGGGUGAGGAUAUGCCGCCGUUUCGGCUGCAGAAGGUGCUACGUUACAUGAGGAUCACCCAUGUCUCUGUUGUUUCGUG [salish99_SSNG1_r04_966] (Eterna round: R96, puzzle: Same State NG 1) | 108 nM | 60.7 nM | 76 nM |  |  | 
25 | AUGUUUAAUGCAGGAUAUGAUUAACAUGAGGAUCACCCAUGUGGUGUUGUGAGUAAGGAGAGUGAUCAGAAGGGCAUUUUUUUU [JMF's solution 101] (Eterna round: R96, puzzle: Same State NG 2) |  | 516 nM |  |  |  | 
26 | GACCGCGAGGAAGGAUAUGGAGCCUUAUUGGCUCCAGAAGGUCCAUAAGGGACAUGAGGAUCACCCAUGUGGGUUGAAGCGGUC [Fiskers NG1ss - 35] (Eterna round: R96, puzzle: Same State NG 1) | 24.6 nM | 140 nM | 160 nM |  |  | 
27 | UGGCUCAGACGAGGAUAUGAUCAUGGCGCUUCGGCGCAUACAUGAGGAUCACCCAUGUAGGGUGAUCAGAAGGUGUCUGAGCCA [SSNG2/8-B2] (Eterna round: R96, puzzle: Same State NG 2) | 90.9 nM | 578 nM | 1000 nM |  |  | 
28 | AAUUCAAACAGAGGAUAUUGUUUAUCUCUAUUGCAAGAAGGCUGAUCUUACUACCCACUUAUGAAACAUGAGGAUCACCCAUGU [JR_SSNG1_Sub018] (Eterna round: R96, puzzle: Same State NG 1) |  | 30.1 nM |  |  |  | 
29 | AAGAACAAGCGAAAGGCCCGUCUUAUAUAACAUGAGGAUCACCCAUGUAAGGUGAAAGUUAGAGAGUGGAGGUUGAA [JR_SHM208A_Sub047] (puzzle: Sensor for hsa-mir-208a) |  |  |  | 284 nM | 282 nM | 340 nM
30 | AUUAUACAUGAGGAUCACCCAUGUAAUUAAUCUAGUAAGAUCUAGGAUAUCAGCUCGAAUAGAGCUGAGAAGGAGAUCACAUGU [SSNG3/20-D1] (Eterna round: R96, puzzle: Same State NG 3) |  | 45.8 nM |  |  |  | 
